# Reference: US12458818B2, “Anti-trophoblast cell surface antigen 2 (TROP2) antibodies and antibody drug conjugates comprising same” (CSPC MEGALITH BIOPHARMACEUTICAL CO., LTD., priority 2019, dated 2025)
# Values joined by “and” are separate entries in the source; they are usually repeats but may differ in a detail not shown here. Equal values may be shown once.
# B1: DP002-HC4LC5-ADC: anti-TROP2-MMAE antibody drug conjugate (DAR ~1.6-2.3) of antibody with HC4 and LC5 (SEQ ID NO: 62) (conjugate)
# VH: EVQLVQSGAEVKKPGESLKISCKGSGYTFTDYSINWVRQMPGKGLEWMGVISTYYGDASYNQKFKGQVTISADKSISTAYLQWSSLKASDTAMYYCARYGDGYNQFDYWGQGTLVTVSS
# light: DIQMTQSPSSLSASVGDRVTITCRVSESVDSYGNNFMHWYQQKPGKAPKLLIYRASNLESGVPSRFSGSGSGTDFTFTISSLQPEDIATYYCQQSYEDPYTFGGGTKLEIKRTVAAPSVFIFPPSDEQLKSGTASVVCLLNNFYPREAKVQWKVDNALQSGNSQESVTEQDSKDSTYSLSSTLTLSKADYEKHKVYACEVTHQGLSSPVTKSFNRGEC
# modifications: MMAE conjugate
# Experiments:
# [1] = tested on: human MDA-MB-468 breast adenocarcinoma tumor xenografts; assay: MDA-MB-468 xenograft efficacy in NOD/SCID mice (Example 3); format: in vivo, mouse; conditions: single dose on Day 0; for T/C (%) / TGI (%): Day 42
# Experimental: The efficacies of two anti-TROP2-MMAE antibody drug conjugates, DP002-HC1LC5-ADC (DAR ˜2) and DP002-HC4LC5-ADC (DAR ˜1.6-2.3), in inhibiting tumor growth in mice bearing human MDA-MB-468 breast adenocarcinoma tumor xenografts were tested. DP002-HC1LC5-ADC comprises an anti-TROP antibody that comprises HC 1 (SEQ ID NO: 52) and LC5 (SEQ ID NO: 62); DP002-HC4LC5-ADC comprises an anti-TROP antibody that comprises HC 4 (SEQ ID NO: 44) and LC5 (SEQ ID NO: 62). Briefly, 48 NOD/SCID mice (female, 6-8 weeks of age) were implanted with 0.1 ml MDA-MB-468 cells (lx 10^7 cell/ml). When the tumors sizes reached above 181 mm^3 (34 days after tumor inoculation), the mice were sorted randomly into 7 groups (6 mice/group) and treated according to the schedule provided in Table 10 below: […]
# [2] = tested on: xenografted MDA-MB-468 human breast adenocarcinoma tumors; assay: MDA-MB-468 xenograft efficacy in female nude mice (Example 4); format: in vivo, mouse
# Experimental: The anti-tumor activity of DP002-HC4LC5-ADC was evaluated as a single agent in female nude mice bearing xenografted MDA-MB-468 human breast adenocarcinoma tumors.
# Each mouse was inoculated with 5×10^6 MDA-MB-468 tumor cells (in 0.1 mL, 1:1 with Matrigel) at the right flank by subcutaneous administration under sterile conditions. When the tumors reached a volume of ˜150 mm^3, mice were randomized into one of 7 treatment groups (6 mice per group), as outlined in Table 12, and treatments began. All doses of DP002-HC4LC5-ADC were administered by intravenous injection via tail vein injection.
# Tumor size and animal body weight were measured twice per week. Clinical signs were recorded daily. Tumors were measured using a caliper in two dimensions (i.e., length (a) and width (b)), and tumor volumes were estimated from measurements of the two diameters of the individual tumors as follows: Tumor Volume (mm^3)=(a×b^2)/2.
# Average tumor growth curves for each treatment group were plotted with the observation time on the X-axis, and corresponding tumor volume (geometric mean) on the Y-axis. A two-tailed t-test was used to analyze the statistical significance of any differences between the treatment groups and the control group. Tumor Growth Inhibition (TGI) was calculated after each tumor volume measurement according to the formula: % TGI=(TVcn−TVtn)/TVcn×100, where TVtn and TVcn are the mean tumor Volume of treated and control groups, respectively. Body weight change (CBW %) was calculated after each body weight measurement according to the formula: CBW %=(BWn−BW0)/BW0×100, where BWn is the body weight at day n and BW0 is the body weight at day 0 respectively.
# [3] = 1 mg/kg IV Days 0, 7, 14, 21, n = 6
# [4] = 1 mg/kg IV once on Day 0, n = 6 unless specified
# [5] = 2 mg/kg IV Day 0 + 1 mg/kg IV Days 7, 14
# [6] = 2 mg/kg IV Day 0 + 1 mg/kg IV Days 7, 14, n = 6 unless specified
# [7] = 2 mg/kg IV once on Day 0, n = 6 unless specified
molecule,measurement,setting,value
B1,"Tumor Size (mm^3) at Day 42, mean ± SEM",[1]; 1 mg/kg intravenous,620 ± 61 mm^3
same,"Tumor Size (mm^3) at Day 42, mean ± SEM",[1]; 4 mg/kg intravenous,4 ± 2 mm^3
same,average tumor volume on Day 56,[1]; 4 mg/kg intravenous,3 mm^3
same,T/C (%),[1]; 1 mg/kg intravenous,82%
same,TGI (%),[1]; 1 mg/kg intravenous,18%
same,T/C (%),[1]; 4 mg/kg intravenous,0%
same,TGI (%),[1]; 4 mg/kg intravenous,100%
same,% TGI Day 70,"[2]; 1 mg/kg IV Days 0, 7, 14, 21",85.88%
same,% of mice with tumor regression at the end of the study,"[2]; 1 mg/kg IV Days 0, 7, 14, 21",30%
same,"Tumor Volume (mm^3, Mean ± SEM) Day 70","[2]; 1 mg/kg IV Days 0, 7, 14, 21",191.51 mm^3 and 192.51 ± 91.38*** mm^3
same,"Tumor Weight (g, Mean ± SEM) Day 84","[2]; 1 mg/kg IV Days 0, 7, 14, 21",0.421 ± 0.218 g
same,Number of mice demonstrating full tumor regression at Week 4 following first dose,[2]; [3],1
same,Number of mice demonstrating full tumor regression at Week 5 following first dose,[2]; [3],1
same,Number of mice demonstrating full tumor regression at Week 6 following first dose,[2]; [3],1
same,Number of mice demonstrating full tumor regression at Week 7 following first dose,[2]; [3],2
same,Number of mice demonstrating full tumor regression at Week 8 following first dose,[2]; [3],2
same,Number of mice demonstrating full tumor regression at Week 9 following first dose,[2]; [3],2
same,Number of mice demonstrating full tumor regression at Week 10 following first dose,[2]; [3],2
same,Number of mice demonstrating full tumor regression at Week 11 following first dose,[2]; [3],2/6 and 2
same,Number of mice demonstrating full tumor regression at Week 12 following first dose,[2]; [3],2
same,% TGI Day 70,[2]; 1 mg/kg IV once on Day 0,62.16%
same,"Tumor Volume (mm^3, Mean ± SEM) Day 70",[2]; 1 mg/kg IV once on Day 0,515.77 mm^3 and 515.77 ± 127.38*** mm^3
same,"Tumor Weight (g, Mean ± SEM) Day 84",[2]; 1 mg/kg IV once on Day 0,0.658 ± 0.165 g
same,"Tumor Weight (g, Mean ± SEM) Day 77","[2]; 1 mg/kg IV once on Day 0, animals euthanized Day 77",0.972 ± 0.165 g
same,Number of mice demonstrating full tumor regression at Week 4 following first dose,[2]; [4],0
same,Number of mice demonstrating full tumor regression at Week 5 following first dose,[2]; [4],0
same,Number of mice demonstrating full tumor regression at Week 6 following first dose,[2]; [4],0
same,Number of mice demonstrating full tumor regression at Week 7 following first dose,[2]; [4],0
same,Number of mice demonstrating full tumor regression at Week 8 following first dose,[2]; [4],0
same,Number of mice demonstrating full tumor regression at Week 9 following first dose,[2]; [4],0
same,Number of mice demonstrating full tumor regression at Week 10 following first dose,[2]; [4],0
same,Number of mice demonstrating full tumor regression at Week 11 following first dose,[2]; [4],0
same,Number of mice demonstrating full tumor regression at Week 12 following first dose,[2]; [4],0 (n = 4)
same,% TGI Day 70,[2]; [5],87.61%
same,% of mice with tumor regression at the end of the study,[2]; [5],100%
same,"Tumor Volume (mm^3, Mean ± SEM) Day 70",[2]; [5],168.94 mm^3 and 168.94 ± 168.94*** mm^3
same,"Tumor Weight (g, Mean ± SEM) Day 84",[2]; [5],0.000 ± 0.000 g
same,"Tumor Weight (g, Mean ± SEM) Day 77","[2]; 2 mg/kg IV Day 0 + 1 mg/kg IV Days 7, 14, animal euthanized Day 77",0.749 g
same,Number of mice demonstrating full tumor regression at Week 4 following first dose,[2]; [6],5
same,Number of mice demonstrating full tumor regression at Week 5 following first dose,[2]; [6],5
same,Number of mice demonstrating full tumor regression at Week 6 following first dose,[2]; [6],5
same,Number of mice demonstrating full tumor regression at Week 7 following first dose,[2]; [6],5
same,Number of mice demonstrating full tumor regression at Week 8 following first dose,[2]; [6],5
same,Number of mice demonstrating full tumor regression at Week 9 following first dose,[2]; [6],5
same,Number of mice demonstrating full tumor regression at Week 10 following first dose,[2]; [6],5
same,Number of mice demonstrating full tumor regression at Week 11 following first dose,[2]; [6],5/6 and 5
same,Number of mice demonstrating full tumor regression at Week 12 following first dose,[2]; [6],5 (n = 5)
same,% TGI Day 70,[2]; 2 mg/kg IV once on Day 0,89.74%
same,% of mice with tumor regression at the end of the study,[2]; 2 mg/kg IV once on Day 0,20%
same,"Tumor Volume (mm^3, Mean ± SEM) Day 70",[2]; 2 mg/kg IV once on Day 0,139.85 mm^3 and 139.85 ± 99.80*** mm^3
same,"Tumor Weight (g, Mean ± SEM) Day 84",[2]; 2 mg/kg IV once on Day 0,0.089 ± 0.048 g
same,"Tumor Weight (g, Mean ± SEM) Day 77","[2]; 2 mg/kg IV once on Day 0, animal euthanized Day 77",1.004 g
same,Number of mice demonstrating full tumor regression at Week 4 following first dose,[2]; [7],2
same,Number of mice demonstrating full tumor regression at Week 5 following first dose,[2]; [7],2
same,Number of mice demonstrating full tumor regression at Week 6 following first dose,[2]; [7],2
same,Number of mice demonstrating full tumor regression at Week 7 following first dose,[2]; [7],2
